Results on 1 molecule are retold here after patent US8487082B2, “Synthetic scFv analogue to the 6313/G2 (anti angiotensin II type 1 receptor) monoclonal antibody variable regions” (Queen Mary & Westfield College, priority 2008, dated 2013).

The target of assay [1] is biotinylated peptide antigen (AT1 receptor) (Rattus norvegicus, UniProt P25095). Briefly: Quartz crystal microbalance binding (Attana 100). The conditions noted are these: 9 μg/ml, 100 second injection period; listed as 12D. The procedure:
Data were obtained comparing the characteristics of binding of the scFv variants and IgM to immobilised peptide antigen using the Attana 100 Quartz Crystal Microbalance. This involved use of a streptavidin (0.1 mg/ml)-coated biotin “chip” (gold-plated quartz crystal in an Attana 100 Biosensor (Quartz crystal microbalance (QCM)) (Attana AB, Stockholm, Sweden). Peptide antigen corresponding to that sequence used to raise the original murine hybridoma, biotinylated at the C-terminus, was then run across the chip at a concentration of 4 μg/ml to create a binding target for scFvs and IgM that were subsequently run across the surface of the QCM chip. Attester software (Attana, Sweden) was used to monitor changes in resonance frequency of the QCM chip in response to binding of a test antibody to the antigen. The magnitude of deflection in Hz over the period of sample injection of 100 s in Hz/second was determined for each antibody at a concentration of 9 μg/ml. The rate at which the antibody was then released from the QCM chip was also measured in Hz/second from the straight-line portion of the biosensor trace as antibody gradually departed from the chip and as the resonance frequency of the chip decreased. Running buffer was PBS containing 0.005% Tween 20 (PBST) and this was also used to make antibody dilutions to give a final protein concentration of 9 μg/ml in each case. The Attana 100 was set up with a 50 μl injection loop and was running with a constant pump speed of 20 μl/min. Samples and PBST buffer controls were injected over 100 seconds giving a sample volume across the chip of 33 μl. 100 mM (6.6 μl volume) phosphoric acid solution was used to regenerate the strepavidin-antigen surface between individual experimental sample runs.

A short description of assay [2]: Rat blood pressure (tail cuff). The note with it: intact rats in vivo. On the set-up: species or system Female Wistar rats. The procedure: Rats were chosen for this part of the study in view of their greater tractability in blood pressure assays. Female Wistar rats were first acclimatised to handling and the blood pressure equipment for 4-5 days before experimentation. Blood pressure in the conscious animals was determined using a Kent Scientific Corporation (Torrington Conn., USA) Coda 6+ tail cuff system in which the animals were held in warmed restrainers while blood pressures were assessed. Animals were first stabilised and their basal blood pressure taken before treatment. They were then briefly removed from the restrainers for sc injection of R6313/G2, 0.4 mg/kg in sterile PBS (0.1 ml). Controls received PBS alone. Blood pressures were then taken at intervals over a period of 1 hour, before restoring to cages. The procedures were repeated daily for 3 days.

A further assay concerns MCF7 cells. The procedure: Activation of caspases during apoptosis was determined using the Apo-ONE homogenous caspase-3/7 assay (Promega Corp, Southampton UK), according to the manufacturer's instructions. Briefly, cells were grown to 90% confluence and washed three times with sterile PBS. Cells were harvested using Trypsin/EDTA and counted. Cells (10^4 per well) were seeded into a 96 well plate and incubated with R6313/G2 at concentrations from 0.1 to 3 μM in the presence or absence of 100 nmol/L angiotensin II, total volume 150 μl, for 24 and 48 hours. After incubation, caspase-3/7 Z-DEVD-R110 substrate (100 μl) was added to each well. Blank wells contained reagent alone, and controls omitted the antibody and/or angiotensin II. Fluorescence was measured every 2 hours over an 8 hour period using a Fluostar Optima spectrofluorimeter (BMG Laboratories, Offenburg Germany), with an excitation wavelength of 485 nm and an emission wavelength of 535 nm.

The subject of the next assay is MDA-MB-231 cells. As to the kind of experiment: In vitro hollow fiber assay. The format is cell-based. The conditions noted are these: MDA-MB-231, in the presence of angiotensin II, 48 h. The procedure: (§1) Hollow Fiber procedures followed the method of Hollingshead. (Hollingshead et al Life Sci 57 131-41 (1995)).
(§2) Polyvinylidene difluoride (PVDF) hollow fibers (500 kDa cut-off, 1 mm inner diameter; Spectrum Europe B.V., Breda, Netherlands) were flushed through with 70% ethanol using a blunt 21 gauge needle and 10 ml syringe. Fibers were then immersed in 70% ethanol for 72 hours, flushed through again with 70% ethanol, then distilled water, and then autoclaved at 131° C. Finally, before loading cell suspensions, fibers were flushed through with RPMI 1640 culture medium. Cells (MCF-7, T47D, and MDA-MB-231) were introduced into fibers at densities of 2.5 to 3.0×10^6 cells/ml. Fibers were then heat-sealed at 2 cm intervals and placed in Petri dishes containing 3 ml of the cell appropriate medium.
(§3) Cell viability was measured using a modified MTT assay. Fibers were incubated in RPMI 1640 with 20% FBS containing 1 mg/ml MTT, and incubated at 37° C. under […], 5% CO2 for 4 hours. The reagent was aspirated, and 2 ml sterile filtered 2.5% protamine sulphate (0.9 g NaCl, 2.5 g protamine sulphate in 100 ml water) was added. Specimens were stored at 4° C. for a minimum of 24 hours in the dark to fix the formazan product. Fresh protamine sulphate (2.5%) was added and fibers were stored for a further 2 to 4 hours at 4° C. Each fiber was transferred to a well in a 24 well plate, cut in half and air-dried overnight, protected from light. Dimethyl sulphoxide (DMSO) (300 μl) was added to each well and the formazan product extracted. An aliquot (190 μl) from each well was transferred to a 96 well plate and absorbance read at 540 nm using a Multiskan Ascent photometric microplate reader (Thermo labsystem). Treated values were calculated as a percentage of the controls.

Another assay relates to MCF-7 cells. As to the kind of experiment: In vitro hollow fiber assay. The format is cell-based. The note with it: MCF-7, in the presence of angiotensin II, 48 h. The procedure: as §1, §2, §3
In the next assay the test system is T47D cells. Briefly: In vitro hollow fiber assay. It is filed as cell-based. The conditions noted are these: in the presence of angiotensin II, 48 h. The procedure:
as §1, §2, §3

“Also recorded” adds a separate entry of the source. Read-outs that look alike come from different tables or passages of the source.

B1: R6313/G2: murine scFv analogue of the 6313/G2 anti-AT1 receptor monoclonal antibody variable domains, SEQ ID NO:15 (protein)
scFv: YAAQPAMAQVKLQQSGPELEKPGASVKISCKASGYSFTGYNMNWVKQSNGKSLEWIGNIDPYYGGTTYNQKFKGKATLTVDKSSSTAYMQLKSLTSEDSAVYYCAREVDYWGQGTTVTVSSGGGGSGGGGSGGGGSDIELTQSPASLAVSLGQRATISYRASKSVSTSGYSYMHWNQQKPGQPPRLLIYLVSNLESGVPARFSGSGSGTDFTLNIHPVEEEDAATYYCQHIRELTRSEGTKLEIKRAAAGAPVPY
modifications: 12D
As to B1, the “change in resonance frequency (apparent on-rate, Hz/second) compared with IgM” value in assay [1] is reported as “significantly greater increases in resonance frequency; also recorded: significantly greater changes in resonance frequency”. Moreover, the resting blood pressure result in assay [2] is “does not reduce and may even increase resting blood pressure”. The “stress-induced increases in blood pressure” value in assay [2] is “significantly inhibits the stress-induced increases in blood pressure”. Besides, the caspase-3/7 activity result was “reduced caspase-3/7 activity” in the assay with MCF7 cells (MCF7, R6313/G2 alone) and “dose dependently increased caspase-3/7 activity” in the assay on MCF7 cells (MCF7, in the presence of angiotensin II). The “cell survival in hollow fibers in vitro” value in the assay on MDA-MB-231 cells, in the assay with MCF-7 cells and in the assay on T47D cells was “dose dependently inhibited survival” throughout.
